Experimental data published in the supplement of paper PMC10567573.

B1: EPB41L3 (parent)
chain: GSKFRYSGRTQAQTRRASALIDRP
B2: ALDH8A1 (parent)
chain: FTGSQPTAERITQLSAPHCKKLSL

Variants of: B1
Assay: protein stability index of a GFP-peptide fusion (GPS, HEK-293T) (PSI 1-6); higher = more stable
Settings: c terminus: a fixed tail appended
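Also: lentivirally expressed fusions sorted by FACS into six bins by GFP to DsRed ratio, PSI derived from sequencing read proportions per bin multiplied by bin number.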

Variant	protein stability index
GSKFRYSGRTQAQTRHASALIDRP	3.32
GSKFRYSGRTQAQTRFASALIDRP	2.9
GSKFRYSGRTQAQTRLASALIDRP	3.11
GSKFRYSGRTQAQTRCASALIDRP	2.52
GSKFRYSGRTQAQTRRASALIDRC	3.06
GSKFRYSGRTQAQTRRASALIDRI	2.71
GSKFRYSGRTQAQTRRASALIDRN	2.8
GSKFRYSGRTQAQTRRASALIDRE	3.19
GSKFRYSGRTQAQTRRASALIDRG	3.32
GSKFRYSGRTQAQTRRASALIDRV	3.05
GSKFRYSGRTQAQTVRASALIDRP	2.99
GSKFRYSGRTQAQERRASALIDRP	3.21
GSKFRYSGRTQAQDRRASALIDRP	3.41
GSKFRYSGRTQAQTRRASALEDRP	3.4
GSKFRYSGRTQAQTRRASALWDRP	2.4
GSKFRYSGRTQAQTRRASALYDRP	2.73
GHKFRYSGRTQAQTRRASALIDRP	2.98
GTKFRYSGRTQAQTRRASALIDRP	2.82
GSKFRYSGRTQAQTRRAMALIDRP	2.71
GSKFRYSGRTQAQTRRARALIDRP	3.08
GSKFRYSGRTQAQTRRASALIDSP	3.01
GSKFRYSGRTQAQTRRASALIDVP	2.67
GSKFRYSGRTMAQTRRASALIDRP	1.94
GSKFRYSGRTYAQTRRASALIDRP	2.64
GSKFRYSGRTTAQTRRASALIDRP	2.57

Variant	protein stability index
GSKFRYSGRTNAQTRRASALIDRP	3
GSKFRYSGRTVAQTRRASALIDRP	2.78
GSKFRYSGRTWAQTRRASALIDRP	1.75
GSKFRYSGRTFAQTRRASALIDRP	2.45
GSKFRYSGRTQFQTRRASALIDRP	2.04
GSKFRYSGRTQLQTRRASALIDRP	3.38
GSKFRYSFRTQAQTRRASALIDRP	2.96
GSKFRYSKRTQAQTRRASALIDRP	3.44
GSKFRYSGRTQAQTRRASAQIDRP	3.79
GSKFRYSGRTQAQTRRASAYIDRP	3.02
GSKFRYSGRTQAQTRRASACIDRP	3.12
GSKFRYSGRTQAQTRRASASIDRP	3.46
GSKFRYSGRTQAQTRRASAGIDRP	3.16
GSKFRYSGRTQAQTRRASAVIDRP	3.52
GSKFRYSGRTQAQTRRASANIDRP	3.78
GSKFRYSGRTQAQTRRASCLIDRP	2.74
GSKFRYSGRIQAQTRRASALIDRP	2.37
GSKFRYSGRYQAQTRRASALIDRP	2.39
GSKFRYSGRQQAQTRRASALIDRP	3.1
GSKFRYSGRMQAQTRRASALIDRP	2.39
GSKFRYSGRSQAQTRRASALIDRP	2.83
GSKFRYSGRRQAQTRRASALIDRP	3.62
GSKFRYSGRCQAQTRRASALIDRP	1.97
GSKFRYSGRAQAQTRRASALIDRP	2.97
GSKKRYSGRTQAQTRRASALIDRP	4.62

Variant	protein stability index
GSKARYSGRTQAQTRRASALIDRP	4.23
GSKTRYSGRTQAQTRRASALIDRP	4.17
GSKNRYSGRTQAQTRRASALIDRP	4.4
GSKSRYSGRTQAQTRRASALIDRP	4.04
GSAFRYSGRTQAQTRRASALIDRP	2.02
GSMFRYSGRTQAQTRRASALIDRP	2.84
GSKFRYSGRTQAQTRRGSALIDRP	3.22
GSKFRYSGRTQAQTRRPSALIDRP	2.96
GSKFRYSGRTQAQTRRYSALIDRP	2.54
GSKFRYSGRTQAQTRRHSALIDRP	2.57
GSKFRYQGRTQAQTRRASALIDRP	2.86
GSKFRYFGRTQAQTRRASALIDRP	2.96
GSKFRYIGRTQAQTRRASALIDRP	1.95
VSKFRYSGRTQAQTRRASALIDRP	2.43
MSKFRYSGRTQAQTRRASALIDRP	2.58
PSKFRYSGRTQAQTRRASALIDRP	2.99
ESKFRYSGRTQAQTRRASALIDRP	3.62
GSKFRYSGRTQAGTRRASALIDRP	3.49
GSKFRYSGSTQAQTRRASALIDRP	3.44
GSKFRYSGETQAQTRRASALIDRP	3.53
GSKFRYSGRTQAQTRRASALIVRP	2.66
GSKFRYSGRTQAQTRRASALILRP	2.99
GSKFRLSGRTQAQTRRASALIDRP	3.15
GSKFRWSGRTQAQTRRASALIDRP	3.49
GSKFRCSGRTQAQTRRASALIDRP	3.51

Variants of: B2
Assay: as above
Settings: c terminus: a fixed tail appended

Variant	protein stability index
FTGSQPTAERITQLSAPHCKKGSL	2.88
FTGSQPTAERITQLSAPHCKKISL	2.76
FTGSQPTAERITQLSAPHCKKCSL	2.27
FTGSQPTAERITQLSAPHCKKQSL	2.68
FTGSQPTAERITQLSAPHCKKESL	3.46
FTGSQPTAERITQLSAPHCKKASL	2.85
FTGSQPTAERITQLSAPHCKKFSL	1.92
FTGSQPTAERITQLSAPHCKKWSL	2.19
FTGSQPTAERITQLSAPHCKKKSL	2.68
FTGSQPTAERITQLSAPHCKKMSL	2.14
FTGSQPTAERITQLSAPHCKKTSL	2.61
FTGSQPTAERITQLSAPHCKKPSL	2.26
FTGSQPTAERITQLSAPHCKKVSL	1.91
FTGSQPTAERITQLSAPHCKKNSL	2.54
FTGSQPTAERITQLSAPHCKKHSL	2.29
FTGSQPTAERITQLSAPHCKKYSL	2.68
FTGSQPTAERITQLSAPHCKKRSL	2.23
FTGSQPTAERITQLSAPHCKKSSL	2.61
FTGSQPTAERITQLSAPHCKKDSL	2.67
FTGSQPTAERITQLSAPHCKVLSL	2.22
FTGSQPTAERITQLSAPHCKQLSL	2.23
FTGSQPTAERITQLSAPHCKWLSL	1.71
FTGSQPTAERITQLSAPHCKTLSL	2.06

Variant	protein stability index
FTGSQPTAERITQLSAPHCKELSL	2.65
FTGSQPTAERITQLSAPHCKILSL	1.71
FTGSQPTAERITQLSAPHCKHLSL	2.1
FTGSQPTAERITQLSAPHCKLLSL	1.84
FTGSQPTAERITQLSAPHCKMLSL	2.45
FTGSQPTAERITQLSAPHCKGLSL	2.01
FTGSQPTAERITQLSAPHCKYLSL	2.1
FTGSQPTAERITQLSAPHCKRLSL	2.41
FTGSQPTAERITQLSAPHCKDLSL	2.89
FTGSQPTAERITQLSAPHCKALSL	2.56
FTGSQPTAERITQLSAPHCKSLSL	2.22
FTGSQPTAERITQLSAPHCKFLSL	1.9
FTGSQPTAERITQLSAPHCKPLSL	2.32
FTGSQPTAERITQLSAPHCKCLSL	1.59
FTGSQPTAERITQLSAPHCKNLSL	2.05
FTGSQPTAERITQLSAPHCKKLSY	2.2
FTGSQPTAERITQLSAPHCKKLSH	2.52
FTGSQPTAERITQLSAPHCKKLSI	2.04
FTGSQPTAERITQLSAPHCKKLSQ	2.9
FTGSQPTAERITQLSAPHCKKLSK	2.5
FTGSQPTAERITQLSAPHCKKLSP	2.9
FTGSQPTAERITQLSAPHCKKLSF	1.97
FTGSQPTAERITQLSAPHCKKLSD	3.23

Variant	protein stability index
FTGSQPTAERITQLSAPHCKKLSA	2.6
FTGSQPTAERITQLSAPHCKKLSM	2.46
FTGSQPTAERITQLSAPHCKKLST	2.56
FTGSQPTAERITQLSAPHCKKLSE	2.96
FTGSQPTAERITQLSAPHCKKLSG	2.67
FTGSQPTAERITQLSAPHCKKLSS	2.95
FTGSQPTAERITQLSAPHCKKLSC	2.52
FTGSQPTAERITQLSAPHCKKLSR	2.52
FTGSQPTAERITQLSAPHCKKLSW	1.93
FTGSQPTAERITQLSAPHCKKLSV	2.38
FTGSQPTAERITQLSAPHCKKLSN	2.97
FTGSQPTAERITQLSAPHMKKLSL	1.96
FTGSQPTAERITQLSAPHEKKLSL	2.79
FTGSQPTAERITQLSAPHNKKLSL	2.16
FTGSQPTAERITQLSAPHRKKLSL	2.45
FTGSQPTAERITQLSAPHVKKLSL	2.04
FTGSQPTAERITQLSAPHHKKLSL	2.33
FTGSQPTAERITQLSAPHTKKLSL	2.45
FTGSQPTAERITQLSAPHPKKLSL	2.06
FTGSQPTAERITQLSAPHGKKLSL	2.58
FTGSQPTAERITQLSAPHLKKLSL	1.91
FTGSQPTAERITQLSAPHKKKLSL	2.75
FTGSQPTAERITQLSAPHYKKLSL	1.68

Variant	protein stability index
FTGSQPTAERITQLSAPHIKKLSL	1.66
FTGSQPTAERITQLSAPHQKKLSL	2.79
FTGSQPTAERITQLSAPHSKKLSL	1.96
FTGSQPTAERITQLSAPHFKKLSL	2.91
FTGSQPTAERITQLSAPHDKKLSL	2.73
FTGSQPTAERITQLSAPHWKKLSL	1.6
FTGSQPTAERITQLSAPHCKKLGL	1.97
FTGSQPTAERITQLSAPHCKKLNL	2.39
FTGSQPTAERITQLSAPHCKKLDL	2.69
FTGSQPTAERITQLSAPHCKKLWL	1.85
FTGSQPTAERITQLSAPHCKKLVL	1.93
FTGSQPTAERITQLSAPHCKKLPL	2.33
FTGSQPTAERITQLSAPHCKKLQL	2.35
FTGSQPTAERITQLSAPHCKKLLL	1.81
FTGSQPTAERITQLSAPHCKKLCL	1.78
FTGSQPTAERITQLSAPHCKKLFL	2.27
FTGSQPTAERITQLSAPHCKKLRL	1.79
FTGSQPTAERITQLSAPHCKKLIL	2.15
FTGSQPTAERITQLSAPHCKKLTL	1.88
FTGSQPTAERITQLSAPHCKKLYL	2.66
FTGSQPTAERITQLSAPHCKKLEL	2.56
FTGSQPTAERITQLSAPHCKKLML	2.27
FTGSQPTAERITQLSAPHCKKLHL	2.02

Variant	protein stability index
FTGSQPTAERITQLSAPHCKKLKL	2.03
FTGSQPTAERITQLSAPHCKKLAL	2.4
FTGSQPTAERITQLSAPHCIKLSL	1.61
FTGSQPTAERITQLSAPHCDKLSL	2.57
FTGSQPTAERITQLSAPHCFKLSL	1.52
FTGSQPTAERITQLSAPHCEKLSL	2.75
FTGSQPTAERITQLSAPHCHKLSL	1.88
FTGSQPTAERITQLSAPHCYKLSL	2.5
FTGSQPTAERITQLSAPHCWKLSL	1.61
FTGSQPTAERITQLSAPHCRKLSL	1.78
FTGSQPTAERITQLSAPHCAKLSL	2.2
FTGSQPTAERITQLSAPHCMKLSL	1.84
FTGSQPTAERITQLSAPHCVKLSL	1.93
FTGSQPTAERITQLSAPHCQKLSL	2.8
FTGSQPTAERITQLSAPHCNKLSL	2.53
FTGSQPTAERITQLSAPHCLKLSL	1.84
FTGSQPTAERITQLSAPHCSKLSL	2.26
FTGSQPTAERITQLSAPHCPKLSL	2.3
FTGSQPTAERITQLSAPHCTKLSL	2.19
FTGSQPTAERITQLSAPHCCKLSL	2.09
FTGSQPTAERITQLSAPHCGKLSL	2.85
